Source: patent US20240417469A1

Columns and labels:
[1] = biological target: recombinant CD3D&E protein (human CD3-his tag) (human) (UniProt P04234); test: SPR Biacore, Ab captured on Protein A
[2] = biological target: human CD3 on cells (human PBMC; Jurkat TCR/CD3 NFAT reporter cells) (human) (UniProt P07766); test: FACS on human PBMC, PE anti-human IgG Fc secondary, geometric mean fluorescence
human CD3 on cells (human PBMC; Jurkat TCR/CD3 NFAT reporter cells) (human), sequence (P07766 23-207, chain 1 of 3): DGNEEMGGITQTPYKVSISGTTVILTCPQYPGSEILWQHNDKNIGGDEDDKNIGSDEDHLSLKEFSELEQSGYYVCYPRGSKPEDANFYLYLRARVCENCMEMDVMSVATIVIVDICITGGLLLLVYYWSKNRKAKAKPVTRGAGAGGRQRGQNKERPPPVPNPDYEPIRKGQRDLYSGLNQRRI
human CD3 on cells (human PBMC; Jurkat TCR/CD3 NFAT reporter cells) (human), sequence (P04234 22-171, chain 2 of 3, further chain): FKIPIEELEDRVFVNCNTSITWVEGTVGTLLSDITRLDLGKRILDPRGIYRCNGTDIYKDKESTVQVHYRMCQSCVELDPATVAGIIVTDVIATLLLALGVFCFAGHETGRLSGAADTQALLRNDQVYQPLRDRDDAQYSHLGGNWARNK
human CD3 on cells (human PBMC; Jurkat TCR/CD3 NFAT reporter cells) (human), sequence (P09693 23-182, chain 3 of 3, further chain): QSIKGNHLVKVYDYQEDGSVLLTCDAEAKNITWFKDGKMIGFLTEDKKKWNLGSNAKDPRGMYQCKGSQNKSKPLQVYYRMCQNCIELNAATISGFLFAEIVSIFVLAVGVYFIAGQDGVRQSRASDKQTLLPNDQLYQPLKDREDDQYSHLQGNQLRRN

recombinant CD3D&E protein (human CD3-his tag) (human), sequence (P04234 22-105 limits assumed, chain 1 of 2): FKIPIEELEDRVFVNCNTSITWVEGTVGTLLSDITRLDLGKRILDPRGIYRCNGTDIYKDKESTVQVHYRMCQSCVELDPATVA
recombinant CD3D&E protein (human CD3-his tag) (human), sequence (P07766 23-126 limits assumed, chain 2 of 2, further chain): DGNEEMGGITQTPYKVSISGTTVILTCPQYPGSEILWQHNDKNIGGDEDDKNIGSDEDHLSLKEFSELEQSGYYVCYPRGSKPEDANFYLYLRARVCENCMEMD

Kd [1]: 3.7 nM
koff [1]: 0.00272 s⁻¹
kon [1]: 735000 M⁻¹ s⁻¹
EC50 (read off the curve) [2]: 0.04 nM
Substance: OKT3 (antibody)
